Reference: PMC6197187

Molecular target: Recombinant human Tau-40 protein (human) (UniProt P10636)
Assay: solution binding assay, then SDS-PAGE and western blotting; 1 µg tau and 1 µg recombinant apoE incubated 1 h at 37 °C in 20 µl PBS (pH 7.4); ended with sample buffer without 2-mercaptoethanol, boiled 5 min; immunoblot for tau (HT7) and apoE

Recombinant human Tau-40 protein (human), sequence (P10636 other isoform, or with tags, fused parts or gaps): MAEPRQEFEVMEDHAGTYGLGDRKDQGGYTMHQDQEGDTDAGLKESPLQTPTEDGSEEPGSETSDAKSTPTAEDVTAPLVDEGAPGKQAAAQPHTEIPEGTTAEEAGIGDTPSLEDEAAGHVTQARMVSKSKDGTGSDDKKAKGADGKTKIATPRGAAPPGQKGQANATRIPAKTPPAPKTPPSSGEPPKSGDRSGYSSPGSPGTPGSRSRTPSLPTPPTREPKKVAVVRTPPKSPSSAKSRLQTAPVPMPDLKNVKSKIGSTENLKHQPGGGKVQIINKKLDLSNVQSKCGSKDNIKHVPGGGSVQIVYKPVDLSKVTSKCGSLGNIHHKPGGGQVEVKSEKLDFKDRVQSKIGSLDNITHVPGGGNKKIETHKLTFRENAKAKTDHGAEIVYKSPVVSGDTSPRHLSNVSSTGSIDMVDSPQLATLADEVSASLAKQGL

N of band A: 2 tau per apoE
N of band B: 2 apoE per tau
Substance: Recombinant human apoE2 protein (from UniProt P02649 19-317) (natural protein)
